The results in this text go back to patent US10428320B2, “Crystal structure of Staphylococcus aureus Autolysin E, method of producing the crystal and its use in screening methods” (J. Stefan Institute, priority 2015, dated 2019).

Where a chain is given by its changes, count along the chain named. Names and notes keep the numbering of the source. “Also recorded” adds a separate entry of the source.

For test [1], the system named is S. aureus purified peptidoglycan. Kind of test: Degradation of Remazol Brilliant Blue labeled S. aureus peptidoglycan (cell wall substrate), colorimetric. The test is classed as biochemical, Staphylococcus aureus. As to conditions: mutants in comparison with the native enzyme. The text has this:
• AtlE is 259 amino acid long protein encoded by the SAV2307 gene loci in the genome of S. aureus strain Mu50. The truncated sequences of glucosaminidase domains of AtlE, lacking the first 34 residues and glu AtlA from S1012 onwards, include additional four amino acids (SAAA, i.e. Ser-Ala-Ala-Ala) that belong to the recognition site of TEV protease. The nucleotide sequences were amplified from the genomic DNA of S. aureus Mu50 using KOD Hot Start Polymerase and cloned into pMCSG 7 plasmid in the frame with N-terminal His-Tag as described [Eschenfeldt et al., 2009]. The mutants were prepared by the overlap extension method [Ho et al., 1989]. The proteins were expressed in BL21(DE3) E. coli expression strain grown in YZM5052 auto induction medium. To facilitate the expression of proteins in soluble form, the cells were initially grown at 37° C. When optical density (OD) measured at 600 nm reached the value of 1, the cells were transferred to 25° C. After 16 hours the cells were pelleted by centrifugation (15 minutes at 7000× g), re-suspended in the buffer A ([…] Tris, 0.4 M NaCl, pH 7.5) supplemented with 1 mg/ml of lysozyme, and frozen and disrupted by the freezing thawing cycles and sonication. The proteins were purified from the cell lysate on AKTAxpress FPLC system (GE Healthcare) using two-step purification protocol. The first purification step was Ni^2+-affinity chromatography on HiTrap IMAC FF column (GE Healthcare) equilibrated in buffer A with 10 mM imidazole. […] 2. […] The degradation products were analyzed by mass spectroscopy. A single cleavage between the central NAG-NAM residues should indicate the classic N-acetyl-glucosaminidase activity by generating the NAM-NAG and NAM-NAGred disaccharides, whereas NAMred and NAG-NAM-NAGred would indicate the muraminidase activity. […] 3. Isolation of S. aureus Peptidoglycan • S. aureus cells were grown overnight in Brain Hearth Infusion Broth (BHI) (37° C., 250 rpm) pelleted by centrifugation (15 minutes at 6000× g), washed three times with the 30 mM Tris, 0.4 M NaCl buffer and then re-suspended in the same buffer. After heat inactivation, the insoluble pellet was re-suspended in 4% SDS and incubated 30 minutes at 80° C. After 30 minutes of centrifugation at 40,000× g, the pellet was re-suspended and washed six times in water. Proteins that remained associated with the peptidoglycan were digested overnight by incubation with trypsin (1 mg/ml) in 30 mM Tris, 0.4 M NaCl, 10 mM MgCl2, pH 7.5 buffer. After pelleting (30 minutes at 40000× g) peptidoglycan was treated overnight with 5 ml 40% aqueous hydrogen fluoride to remove teichoic acid, pelleted again (30 minutes at 40000× g) and washed extensively with water. Saturated suspension of the pure peptidoglycan solution in water was stored at −20° C. 4. Biochemical Peptidoglycan Degradation and Labeling with Remazol Brilliant Blue • For the colorimetric assays, peptidoglycan was labeled with Remazol Brilliant Blue as described [Odintsov et al., 2004]. In short, 50 ul of water suspension of Remazol Brilliant Blue labeled peptidoglycan was mixed with 10 ul of 1 M buffer solutions at pH of […] of 4 M NaCl, different amounts of enzymes and filled with water to the final volume […]. The final concentration of buffer and NaCl in the reaction mixture was therefore 100 mM.

Test [2] in a line: Digestion of synthetic tetrasaccharide substrate, products analyzed by mass spectroscopy. It is filed as biochemical. The conditions noted are these: mass spectroscopy of degradation products. The text has this: (§1) • AtlE is 259 amino acid long protein encoded by the SAV2307 gene loci in the genome of S. aureus strain Mu50. The truncated sequences of glucosaminidase domains of AtlE, lacking the first 34 residues and glu AtlA from S1012 onwards, include additional four amino acids (SAAA, i.e. Ser-Ala-Ala-Ala) that belong to the recognition site of TEV protease. The nucleotide sequences were amplified from the genomic DNA of S. aureus Mu50 using KOD Hot Start Polymerase and cloned into pMCSG 7 plasmid in the frame with N-terminal His-Tag as described [Eschenfeldt et al., 2009]. The mutants were prepared by the overlap extension method [Ho et al., 1989]. The proteins were expressed in BL21(DE3) E. coli expression strain grown in YZM5052 auto induction medium. To facilitate the expression of proteins in soluble form, the cells were initially grown at 37° C. When optical density (OD) measured at 600 nm reached the value of 1, the cells were transferred to 25° C. After 16 hours the cells were pelleted by centrifugation (15 minutes at 7000× g), re-suspended in the buffer A ([…] Tris, 0.4 M NaCl, pH 7.5) supplemented with 1 mg/ml of lysozyme, and frozen and disrupted by the freezing thawing cycles and sonication. The proteins were purified from the cell lysate on AKTAxpress FPLC system (GE Healthcare) using two-step purification protocol. […] The degradation products were analyzed by mass spectroscopy. […]

Test [3] can be described thus: Digestion of synthetic hexa-NAG substrate, products analyzed by mass spectroscopy. It is filed as biochemical. As to conditions: mass spectroscopy of degradation products.
Text: as §1

B1: E138A (protein)
chain: MKKNFKLRISTLLLIVILVVFAVLLIVNETKLFKNDVNYSFDEAVSMQQGKGIVQTKEEDGKFVEANNNEIAKAMTISHKDNDMKYMDITEKVPMSESEVNQLLKGKGILENRGKVFLEAQEKYEVNVIYLVSHALVATGNGKSELAKGIKDGKKRYYNFFGIGAFDSSAVRSGKSYAEKEQWTSPDKAIIGGAKFIRNEYFENNQLNLYQMRWNPENPAQHQYASDIRWADKIAKLMDKSYKQFGIKKDDIRQTYYK
For the molecule B1, the “activity against the cell wall substrate (S. aureus peptidoglycan)” value (“activity against the cell wall substrate” for short) is “abolished activity” in test [1] and “zero activity” in test [1] (listed as E138).

B2: E145A (protein)
chain: B1 chain with A138E, E145A
For B2, the “activity against the cell wall substrate” value in test [1] was “activity of native enzyme; also recorded: activity equivalent to the native enzyme”.

B3: Y201A (protein)
chain: B1 chain with A138E, Y201A
Regarding B3, the “activity against the cell wall substrate” value is “completely inactive” in test [1] and “zero activity; also recorded: abolished the enzymatic activity” in test [1] (listed as Y201).

B4: D227A (protein)
chain: B1 chain with A138E, D227A
In the case of B4, the “activity against the cell wall substrate” value in test [1] is on record as “halved activity”.

B5: D167A (protein)
chain: B1 chain with A138E, D167A
Turning to B5, in test [1], the “activity against the cell wall substrate” value is recorded as “halved activity”.

B6: AtlE: recombinant glucosaminidase domain of Autolysin E of S. aureus Mu50, encoded by SAV2307 (protein)
chain: SAAANDVNYSFDEAVSMQQGKGIVQTKEEDGKFVEANNNEIAKAMTISHKDNDMKYMDITEKVPMSESEVNQLLKGKGILENRGKVFLEAQEKYEVNVIYLVSHALVETGNGKSELAKGIKDGKKRYYNFFGIGAFDSSAVRSGKSYAEKEQWTSPDKAIIGGAKFIRNEYFENNQLNLYQMRWNPENPAQHQYASDIRWADKIAKLMDKSYKQFGIKKDDIRQTYYK
B6: in test [2], the “digestion products / specificity on (NAM-NAG)2red” value is on record as “only NAM-NAGred with Mw of 499.21 Da was found”. In addition, the “cleavage of (NAG)6” value in test [3] is “not degraded at all; also recorded: cannot”.
